Measurements from paper PMC8809517, “Cofactor-independent RNA editing by a synthetic S-type PPR protein”.

What was measured:
Assay in all cases: high-throughput RNA pulldown from lysate on Ni-NTA beads; HRP: 50 mM Tris pH 8, 150 mM NaCl, 1 mM beta-mercaptoethanol, 50 ug/ml BSA, 3 ug/ml yeast RNA, 0.5% heparin; ITC and FP: Tris pH 8, 200 mM KCl, 5% glycerol; MST: 50 mM Tris pH 8, 200 mM NaCl, 1 mM DTT, BSA, heparin, 0.05% Tween 20
Conditions in all cases: tags: N-terminal His-eGFP
[1] = target: T1, GFP-9S library array, motif 4 ND N98V;D124A (synthetic construct, N98V;D124A)
T1 chain: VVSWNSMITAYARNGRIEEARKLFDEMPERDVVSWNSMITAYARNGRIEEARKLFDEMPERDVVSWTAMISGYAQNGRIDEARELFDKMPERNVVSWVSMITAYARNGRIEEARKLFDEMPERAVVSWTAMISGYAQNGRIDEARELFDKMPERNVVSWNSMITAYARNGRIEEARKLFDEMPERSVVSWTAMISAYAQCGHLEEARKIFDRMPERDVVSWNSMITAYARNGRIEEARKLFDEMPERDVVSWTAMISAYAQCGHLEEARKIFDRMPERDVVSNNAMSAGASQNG

[2] = target: T2, GFP-9S library array, motif 4 ND N98E;D124Y (synthetic construct, N98E;D124Y)
T2 chain: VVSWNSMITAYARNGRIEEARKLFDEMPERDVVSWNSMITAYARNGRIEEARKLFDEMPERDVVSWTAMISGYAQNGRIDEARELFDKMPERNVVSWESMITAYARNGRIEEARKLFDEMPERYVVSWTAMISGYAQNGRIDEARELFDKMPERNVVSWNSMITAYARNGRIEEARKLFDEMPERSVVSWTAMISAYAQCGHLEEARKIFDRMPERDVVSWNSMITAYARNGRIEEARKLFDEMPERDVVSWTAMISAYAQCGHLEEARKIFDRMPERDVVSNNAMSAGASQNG

[3] = target: T3, GFP-9S library array, motif 4 ND N98F;D124H (synthetic construct, N98F;D124H)
T3 chain: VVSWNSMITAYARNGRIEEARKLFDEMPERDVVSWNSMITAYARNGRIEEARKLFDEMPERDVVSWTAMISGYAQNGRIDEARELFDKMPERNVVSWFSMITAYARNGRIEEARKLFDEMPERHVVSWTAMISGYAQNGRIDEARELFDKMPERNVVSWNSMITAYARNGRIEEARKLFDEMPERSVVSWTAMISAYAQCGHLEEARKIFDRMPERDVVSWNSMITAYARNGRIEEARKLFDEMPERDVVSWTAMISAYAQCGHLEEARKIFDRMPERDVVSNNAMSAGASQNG

[4] = target: T4, GFP-9S library array, motif 4 ND N98A;D124T (synthetic construct, N98A;D124T)
T4 chain: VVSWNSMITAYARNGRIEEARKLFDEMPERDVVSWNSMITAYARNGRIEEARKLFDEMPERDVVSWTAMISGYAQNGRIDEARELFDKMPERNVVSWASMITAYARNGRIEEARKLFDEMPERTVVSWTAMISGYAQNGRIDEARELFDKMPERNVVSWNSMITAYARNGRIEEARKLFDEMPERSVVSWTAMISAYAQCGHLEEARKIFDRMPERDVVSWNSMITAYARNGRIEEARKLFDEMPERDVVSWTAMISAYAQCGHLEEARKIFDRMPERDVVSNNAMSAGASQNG

[5] = target: T5, GFP-9S library array, motif 4 ND N98W;D124K (synthetic construct, N98W;D124K)
T5 chain: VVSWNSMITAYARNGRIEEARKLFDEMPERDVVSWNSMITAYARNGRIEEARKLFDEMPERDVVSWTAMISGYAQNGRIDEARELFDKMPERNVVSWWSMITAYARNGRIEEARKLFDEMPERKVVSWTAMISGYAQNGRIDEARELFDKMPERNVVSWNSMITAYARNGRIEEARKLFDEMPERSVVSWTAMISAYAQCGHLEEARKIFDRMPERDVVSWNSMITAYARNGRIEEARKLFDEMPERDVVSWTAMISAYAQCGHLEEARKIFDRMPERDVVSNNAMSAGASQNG

Binder: AUUACACGUGA (ssRNA) [Cy5-rpoA]
- Kd ([1]; label: 5' Cy5): 64.4 nM
- Kd ([2]; label: 5' Cy5): 231 nM
- Kd ([3]; label: 5' Cy5): 73.4 nM
- Kd ([4]; label: 5' Cy5): 102 nM
- Kd ([5]; label: 5' Cy5): 72.6 nM

Binder: AUUAAACGUGA (ssRNA) [IR-rpoA-A]
- Kd ([1]; label: 5' IRDye 800CW): 80.7 nM
- Kd ([2]; label: 5' IRDye 800CW): 450 nM
- Kd ([3]; label: 5' IRDye 800CW): 188 nM
- Kd ([4]; label: 5' IRDye 800CW): 90.7 nM
- Kd ([5]; label: 5' IRDye 800CW): 177 nM

Binder: AUUAGACGUGA (ssRNA) [Cy5-rpoA-G]
- Kd ([1]; label: 5' Cy5): 74.1 nM
- Kd ([2]; label: 5' Cy5): 187 nM
- Kd ([3]; label: 5' Cy5): 84.9 nM
- Kd ([4]; label: 5' Cy5): 107 nM
- Kd ([5]; label: 5' Cy5): 48.1 nM

Binder: AUUAUACGUGA (ssRNA) [IR-rpoA-U]
- Kd ([1]; label: 5' IRDye 800CW): 71.8 nM
- Kd ([2]; label: 5' IRDye 800CW): 480 nM
- Kd ([3]; label: 5' IRDye 800CW): 138 nM
- Kd ([4]; label: 5' IRDye 800CW): 68.9 nM
- Kd ([5]; label: 5' IRDye 800CW): 154 nM
